PMC7463553, “Thiol Redox Regulation of Plant β-Carbonic Anhydrase” (Biomolecules, 2020)

Molecular target: the molecule itself
Experiment: dynamic light scattering; 320 µM βCA1 after addition of 20 mM DTT or in the presence of 500 µM H2O2; 50 mM Na-phosphate pH 8; 25 °C; intensity converted to volume percentage

B1: β-carbonic anhydrase 1 (βCA1) from Arabidopsis thaliana (enzyme, UniProt P27140 114-347, looked up)
chain: ALQTGTSSDKKAFDPVETIKQGFIKFKKEKYETNPALYGELAKGQSPKYMVFACSDSRVCPSHVLDFQPGDAFVVRNIANMVPPFDKVKYGGVGAAIEYAVLHLKVENIVVIGHSACGGIKGLMSFPLDGNNSTDFIEDWVKICLPAKSKVISELGDSAFEDQCGRCEREAVNVSLANLLTYPFVREGLVKGTLALKGGYYDFVKGAFELWGLEFGLSETSSVKDVATILHWKL
notes: β-carbonic anhydrase 1 (βCA1, βCA1.1), Arabidopsis thaliana, UniProt P27140, At3g01500; The protein was analysed both reduced (DTT) and oxidised (H2O2); also called βCA1.1; chloroplast βCA; source: E. coli NiCo21 (DE3), purified (passage through a chitin column, Ni-NTA beads, dialysis)
stoichiometry N: 2
